Target: T1, hB7-1-Fc (human, UniProt P33681 35-242)
T1 construct: human B7-1 (CD80), recombinant Fc fusion; also called rhB7-1; source: bought: R&D Systems
T1 sequence (looked up): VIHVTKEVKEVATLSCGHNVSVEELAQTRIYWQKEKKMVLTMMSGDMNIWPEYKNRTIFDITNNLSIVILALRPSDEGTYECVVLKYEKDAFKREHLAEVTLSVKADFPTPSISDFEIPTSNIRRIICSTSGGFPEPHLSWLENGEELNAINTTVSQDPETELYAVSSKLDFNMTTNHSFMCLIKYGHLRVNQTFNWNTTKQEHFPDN
Experiment: BLI; ForteBio Octet; tested 'in a similar way' to the ICOS antibodies (there: antibody loaded on biosensors at 10 ug/mL, Fc protein in solution, dissociation in kinetics buffer: PBS with 0.1% BSA, 0.05% sodium azide, 0.02% Tween-20; global 1:1 fit); which partner was loaded is not said for this experiment
Conditions: both partners purified

B1: mCD28-Fc (Fc fusion, mouse, UniProt P31041 20-150, looked up)
chain: NKILVKQSPLLVVDSNEVSLSCRYSYNLLAKEFRASLYKGVNSDVEVCVGNGNFTYQPQFRSNAEFNCDGDFDNETVTFRLWNLHVNHTDIYFCKIEFMYPPPYLDNERSNGTIIHIKEKHLCHTQSSPKL
notes: mouse CD28, recombinant Fc fusion; source: bought: R&D Systems
- Kd: 14 nM

— paper PMC7514066, “ICOS agonism by JTX-2011 (vopratelimab) requires initial T cell priming and Fc cross-linking for optimal T cell activation and anti-tumor immunity in preclinical models” (PLoS ONE, 2020)
